{"source": "paper PMC9590138", "target": "recombinant soluble CD146 (UniProt P43121)", "assay": "ELISA; in-house ELISA: binding of αvβ3 to rsCD146, dissociation constant estimated; methods in Additional file 1, not shown", "data": [{"substance": "integrin αvβ3 (protein used in the in-house ELISA) (from UniProt P06756 31-1048; P05106 27-788) (receptor)", "values": [{"measurement": "Kd", "value": 1.8, "unit": "nM"}]}]}
